The results in this text go back to ChEMBL document CHEMBL1129640, “Assessment of structural requirements for the monoamine oxidase-B-catalyzed oxidation of 1,4-disubstituted-1,2,3,6-tetrahydropyridine derivatives related to the neurotoxin 1-methyl-4-phenyl-1,2,3,6-tetrahydropyridine” (J Med Chem, 1996).

Where “and” joins values, the source holds several entries; their conditions need not be identical. Equal values may be shown once.

Substrate in data set [1]: CCc1ccc(C2=CCN(C)CC2)cc1
Description: (§1) Michaelis-Menten constant was measured against monoamine oxidase B (MAO-B) from beef liver.

Substrate in data set [2]: CN1CC=C(c2ccc(Br)cc2)CC1
The description is as §1.

Substrate in data set [3]: CN1CC=C(c2ccc(Cl)cc2)CC1
The description is as §1.

Substrate in data set [4]: CN1CC=C(c2ccc(F)cc2)CC1
Described as §1.

Substrate in data set [5]: Cc1ccc(C2=CCN(C)CC2)cc1
The description is as §1.

Substrate in data set [6]: COc1ccc(C2=CCN(C)CC2)cc1
In words: Michaelis-Menten constant was measured against monoamine oxidase B (MAO-B) from beef liver; Inactive.

B1: Amine oxidase [flavin-containing] B (Bos taurus) (protein)
chain: MSSKCDVVVVGGGISGMAAAKLLHDSGLNVIVLEARDRVGGRTYTLRNQKVKYVDLGGSYVGPTQNHILRLSKELGLETYKVNEVERLIHHTKGKSYPFRGSFPSVWNPITYLDHNNLWRTMDDMGREIPSDAPWKAPLAEQWDLMTMKELLDKICWTESSKQLAILFVNLCVTAEIHEVSALWFLWYVKQCGGTTRIFSTSNGGQERKFVGGSGQVSERIMDLLGDRVKLERPVIHIDQTGENVLVETLNHELYEAKYVISAVPPVLGMKIHFNPPLPMMRNQLITRVPLGSVIKSIVYYKEPFWRNMDYCGSMIIEGEEAPVAYALDDTKPDGSYPAIIGFILAHKARKLARLTKEERLKKLCDLYAKVLGSQEALHPVHYEEKNWCEEQYSGGCYTSYFPPGIMTQYGRVLRQPVGRIYFAGTETATHWSGYMEGAVEAGERAAREILHAMGKIPEDEIWLPEPESVDVPAKPITTTFLQRHLPSVPGLLKLIGLTTIFSATALGFLAHKRGLLVRI
For orientation: Km means the substrate concentration at which the rate is half of its maximum. The kcat is the number of substrate molecules converted per active site and unit of time at saturation. For the protein B1, the Km is 1890 µM in data set [1]; 140 µM in data set [2]; 180 µM and 200 µM in data set [3]; 220 µM in data set [4]; 500 µM and 490 µM in data set [5]; 940 µM in data set [6]. In addition, the kcat in data set [1] came out at 1.42 s⁻¹; in data set [2] it was 1.18 s⁻¹; in data set [4] it was 1.55 s⁻¹; in data set [6], 1.13 s⁻¹.
